Results as given in US20200116741A1 (University of California, published 2020).

Legend:
[1] = biological target: T1, peptide ELPRGPGESRAGPAARPP (human); assay: peptide epitope scanning
T1 peptide: ELPRGPGESRAGPAARPP

[2] = biological target: T2, rhERFE2 (human, UniProt Q4G0M1 29-354); assay: hybridoma supernatant screening; checkerboard sandwich testing
T2 construct: also called Recombinant hERFE2; recombinant human erythroferrone 2
T2 sequence: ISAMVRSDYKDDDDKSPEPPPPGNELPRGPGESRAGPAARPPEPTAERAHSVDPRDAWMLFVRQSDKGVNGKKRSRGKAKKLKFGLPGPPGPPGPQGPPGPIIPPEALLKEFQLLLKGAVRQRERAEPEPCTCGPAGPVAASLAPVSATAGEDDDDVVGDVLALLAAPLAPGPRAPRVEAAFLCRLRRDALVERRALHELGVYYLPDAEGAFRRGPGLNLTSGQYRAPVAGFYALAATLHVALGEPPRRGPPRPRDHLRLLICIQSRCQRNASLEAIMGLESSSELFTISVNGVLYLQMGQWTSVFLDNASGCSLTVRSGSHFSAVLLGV
Text: Rabbit hybridomas were generated (custom order fulfilled by Abcam, Burlingame, Calif.) from rabbits immunized by rhERFE1 and boosted by rhERFE2. Hybridoma supernatants were selected for reactivity against rhERFE2. After biotinylation of Mabs (EZ-Link sulfo-NHS-LC-LC-Biotin kit, Thermo Fisher Scientific), optimal pair of unbiotinylated capture Mab and biotinylated detection Mab was chosen by checkerboard testing with rhERFE1 and rhERFE2. The cDNAs encoding the final Mab pair (#9 and #42) were cloned from the hybridomas and used to produce the Mabs recombinantly.

[3] = biological target: T3, human erythroferrone (human, UniProt Q4G0M1 29-354); assay: sandwich ELISA on human serum, Mab#9 as capture antibody
T3 construct: Native hormone in human serum, detected by the Mab#9 / Mab#42 sandwich ELISA; also called hERFE; serum hERFE
T3 sequence (looked up): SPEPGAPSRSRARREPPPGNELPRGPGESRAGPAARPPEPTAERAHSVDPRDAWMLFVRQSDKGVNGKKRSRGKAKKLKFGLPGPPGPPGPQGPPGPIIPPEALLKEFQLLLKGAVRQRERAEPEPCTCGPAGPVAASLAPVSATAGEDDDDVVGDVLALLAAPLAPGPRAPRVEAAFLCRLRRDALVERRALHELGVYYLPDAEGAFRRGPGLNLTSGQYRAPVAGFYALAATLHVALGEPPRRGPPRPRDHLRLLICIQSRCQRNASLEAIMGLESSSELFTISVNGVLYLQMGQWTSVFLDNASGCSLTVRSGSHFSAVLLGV
Method: (§1) 96-well high binding plates (Costar #3590) were coated with Mab#9 diluted to 1 μg/ml in sodium carbonate buffer (50 mM, pH 9.6), overnight at 4° C. Plates were washed 3-times with TB S-T (TBS +0.05% Tween 20) then blocked for 1 hour at room temperature with 200 µl/well Blocking Buffer (BB: PBS,0.2% Na casein, 0.05% Tween 20, 0.1M NaCl). Recombinant hERFE2 standard was first diluted to 1 μg/ml and then serially diluted in BB to 10, 5, 2.5, 1.25, and 0.625 ng/ml. After a 1 hour incubation at 25° C. in a 300 rpm shaker, the plate was washed 4-times with TBS-T, 10 seconds, 25° C., and 300 rpm per wash and incubated 1 hour at 25° C., 300 rpm in shaker with 100 μl/well biotinylated Mab#42 (1 μg/ml in BB). After incubation for 1 hour at 25° C., 300 rpm in shaker, the plate was washed 4-times as before, incubated for 45 minutes with Neutravidin-HRP conjugate (ThermoScientific #31030) 1/5000 (100 μl/well) washed again 3-times as before and developed with 100 μl TMB Substrate System for ELISA (ThermoScientific #34028) at room temperature in the dark for 10 minutes. The reaction was stopped by adding 50 μl of 2N sulfuric acid and the plates were read on a Spectramax 250 (Molecular Devices) at 450 nm.

[4] = biological target: T4, rhERFE1 (human, UniProt Q4G0M1 29-354); assay: checkerboard sandwich ELISA, capture antibody
T4 construct: The FLAG tag was mostly lost during cell culture; also called recombinant hERFE; recombinant human erythroferrone 1
T4 sequence: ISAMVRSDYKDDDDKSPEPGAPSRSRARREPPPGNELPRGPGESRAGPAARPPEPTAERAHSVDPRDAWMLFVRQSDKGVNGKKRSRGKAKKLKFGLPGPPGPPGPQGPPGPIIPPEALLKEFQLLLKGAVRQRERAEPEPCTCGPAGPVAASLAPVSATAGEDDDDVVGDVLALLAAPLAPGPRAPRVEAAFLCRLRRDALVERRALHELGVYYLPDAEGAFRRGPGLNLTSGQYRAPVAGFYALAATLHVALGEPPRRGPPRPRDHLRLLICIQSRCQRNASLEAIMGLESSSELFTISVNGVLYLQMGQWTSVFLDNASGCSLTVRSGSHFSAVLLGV

[5] = biological target: T4, rhERFE1; assay: checkerboard sandwich ELISA, biotinylated detection antibody
[6] = biological target: T3, human erythroferrone; assay: sandwich ELISA on human serum, biotinylated Mab#42 as detection antibody
Method: as §1

Measured: binding result

B1: Mab#9 (antibody, V domains shown)
VH: QSVEESGGRLVTPGTPLTLTCTVSGIDLNDNAMRWVRQAPGKGLEWIGVIYIDTSTYYASWAKGRFTISKTSSTTVDLKITSPTTEDTATYFCVREDGYRLGDVWGPGTLVTVSS
VL: ALVMTQTPSSVSAGVGGTVTINCQASQSLYNNNYLSWFQQKPGQPPKLLIYWASTLASGVPSRFSGSGSGTQFTLTISGVACDDAATYYCAGYKSSSNDDFAFGGGTEVVVKG
notes: Rabbit monoclonal from a hybridoma, later made recombinantly; Used unbiotinylated as the capture antibody in the ELISA; also called rabbit monoclonal antibody #9; capture Mab
binds: [1] | [2] | [3] | [4]

B2: Mab#42 (antibody, V domains shown)
VH: QSLEESGGRLVTPGGSLTLTCTVSGIDLSSYEMGWVRQAPGKGLEWIGVIGTDGTAVYATWVKGRFTISKTSTTVDLKMTSLTTEDTATYFCARDSSGNSNYRAFDPWGPGTLVTVSS
VL: AYDMTQTPASVEVAVGGTVTIKCQASQSIYSYLSWYQQKPGQPPKLLIYRASTLASGVPSRFKGSGSGTQFTLTISDLECADAATYYCQQGFVISNVLNSFGGGTEVVVKG
notes: Rabbit monoclonal from a hybridoma, later made recombinantly; also called rabbit monoclonal antibody #42; biotinylated detection Mab
binds: [2] | [5] | [6]
